In patent US20040023235A1 (WISTAR INSTITUTE OF ANATOMY AND BIOLOGY, published 2004):

B1: Rad50 (other, UniProt Q92878 1-1312, looked up)
chain: MSRIEKMSILGVRSFGIEDKDKQIITFFSPLTILVGPNGAGKTTIIECLKYICTGDFPPGTKGNTFVHDPKVAQETDVRAQIRLQFRDVNGELIAVQRSMVCTQKSKKTEFKTLEGVITRTKHGEKVSLSSKCAEIDREMISSLGVSKAVLNNVIFCHQEDSNWPLSEGKALKQKFDEIFSATRYIKALETLRQVRQTQGQKVKEYQMELKYLKQYKEKACEIRDQITSKEAQLTSSKEIVKSYENELDPLKNRLKEIEHNLSKIMKLDNEIKALDSRKKQMEKDNSELEEKMEKVFQGTDEQLNDLYHNHQRTVREKERKLVDCHRELEKLNKESRLLNQEKSELLVEQGRLQLQADRHQEHIRARDSLIQSLATQLELDGFERGPFSERQIKNFHKLVRERQEGEAKTANQLMNDFAEKETLKQKQIDEIRDKKTGLGRIIELKSEILSKKQNELKNVKYELQQLEGSSDRILELDQELIKAERELSKAEKNSNVETLKMEVISLQNEKADLDRTLRKLDQEMEQLNHHTTTRTQMEMLTKDKADKDEQIRKIKSRHSDELTSLLGYFPNKKQLEDWLHSKSKEINQTRDRLAKLNKELASSEQNKNHINNELKRKEEQLSSYEDKLFDVCGSQDFESDLDRLKEEIEKSSKQRAMLAGATAVYSQFITQLTDENQSCCPVCQRVFQTEAELQEVISDLQSKLRLAPDKLKSTESELKKKEKRRDEMLGLVPMRQSIIDLKEKEIPELRNKLQNVNRDIQRLKNDIEEQETLLGTIMPEEESAKVCLTDVTIMERFQMELKDVERKIAQQAAKLQGIDLDRTVQQVNQEKQEKQHKLDTVSSKIELNRKLIQDQQEQIQHLKSTTNELKSEKLQISTNLQRRQQLEEQTVELSTEVQSLYREIKDAKEQVSPLETTLEKFQQEKEELINKKNTSNKIAQDKLNDIKEKVKNIHGYMKDIENYIQDGKDDYKKQKETELNKVIAQLSECEKHKEKINEDMRLMRQDIDTQKIQERWLQDNLTLRKRNEELKEVEEERKQHLKEMGQMQVLQMKSEHQKLEENIDNIKRNHNLALGRQKGYEEEIIHFKKELREPQFRDAEEKYREMMIVMRTTELVNKDLDIYYKTLDQAIMKFHSMKMEEINKIIRDLWRSTYRGQDIEYIEIRSDADENVSASDKRRNYNYRVVMLKGDTALDMRGRCSAGQKVLASLIIRLALAETFCLNCGIIALDEPTTNLDRENIESLAHALVEIIKSRSQQRNFQLLVITHDEDFVELLGRSEYVEKFYRIKKNIDQCSEIVKCSVSSLGFNVH
notes: Member of the Mre11/Rad50/NBS complex
B2: Mre11 (other, UniProt P49959 2-708, looked up)
chain: STADALDDENTFKILVATDIHLGFMEKDAVRGNDTFVTLDEILRLAQENEVDFILLGGDLFHENKPSRKTLHTCLELLRKYCMGDRPVQFEILSDQSVNFGFSKFPWVNYQDGNLNISIPVFSIHGNHDDPTGADALCALDILSCAGFVNHFGRSMSVEKIDISPVLLQKGSTKIALYGLGSIPDERLYRMFVNKKVTMLRPKEDENSWFNLFVIHQNRSKHGSTNFIPEQFLDDFIDLVIWGHEHECKIAPTKNEQQLFYISQPGSSVVTSLSPGEAVKKHVGLLRIKGRKMNMHKIPLHTVRQFFMEDIVLANHPDIFNPDNPKVTQAIQSFCLEKIEEMLENAERERLGNSHQPEKPLVRLRVDYSGGFEPFSVLRFSQKFVDRVANPKDIIHFFRHREQKEKTGEEINFGKLITKPSEGTTLRVEDLVKQYFQTAEKNVQLSLLTERGMGEAVQEFVDKEEKDAIEELVKYQLEKTQRFLKERHIDALEDKIDEEVRRFRETRQKNTNEEDDEVREAMTRARALRSQSEESASAFSADDLMSIDLAEQMANDSDDSISAATNKGRGRGRGRRGGRGQNSASRGGSQRGRADTGLETSTRSRNSKTAVSASRNMSIIDAFKSTRQQPSRNVTTKNYSEVIEVDESDVEEDIFPTTSKTDQRWSSTSSSKIMSQSQVSKGVDFESSEDDDDDPFMNTSSLRRNRR
notes: as for B1

Molecular target: T1, endogenous 53Bp1 (human p53-binding protein) from U2OS nuclear extracts (human, UniProt Q12888 1-1972)
T1 construct: Endogenous protein in nuclear extracts
T1 sequence (Q12888 whole entry): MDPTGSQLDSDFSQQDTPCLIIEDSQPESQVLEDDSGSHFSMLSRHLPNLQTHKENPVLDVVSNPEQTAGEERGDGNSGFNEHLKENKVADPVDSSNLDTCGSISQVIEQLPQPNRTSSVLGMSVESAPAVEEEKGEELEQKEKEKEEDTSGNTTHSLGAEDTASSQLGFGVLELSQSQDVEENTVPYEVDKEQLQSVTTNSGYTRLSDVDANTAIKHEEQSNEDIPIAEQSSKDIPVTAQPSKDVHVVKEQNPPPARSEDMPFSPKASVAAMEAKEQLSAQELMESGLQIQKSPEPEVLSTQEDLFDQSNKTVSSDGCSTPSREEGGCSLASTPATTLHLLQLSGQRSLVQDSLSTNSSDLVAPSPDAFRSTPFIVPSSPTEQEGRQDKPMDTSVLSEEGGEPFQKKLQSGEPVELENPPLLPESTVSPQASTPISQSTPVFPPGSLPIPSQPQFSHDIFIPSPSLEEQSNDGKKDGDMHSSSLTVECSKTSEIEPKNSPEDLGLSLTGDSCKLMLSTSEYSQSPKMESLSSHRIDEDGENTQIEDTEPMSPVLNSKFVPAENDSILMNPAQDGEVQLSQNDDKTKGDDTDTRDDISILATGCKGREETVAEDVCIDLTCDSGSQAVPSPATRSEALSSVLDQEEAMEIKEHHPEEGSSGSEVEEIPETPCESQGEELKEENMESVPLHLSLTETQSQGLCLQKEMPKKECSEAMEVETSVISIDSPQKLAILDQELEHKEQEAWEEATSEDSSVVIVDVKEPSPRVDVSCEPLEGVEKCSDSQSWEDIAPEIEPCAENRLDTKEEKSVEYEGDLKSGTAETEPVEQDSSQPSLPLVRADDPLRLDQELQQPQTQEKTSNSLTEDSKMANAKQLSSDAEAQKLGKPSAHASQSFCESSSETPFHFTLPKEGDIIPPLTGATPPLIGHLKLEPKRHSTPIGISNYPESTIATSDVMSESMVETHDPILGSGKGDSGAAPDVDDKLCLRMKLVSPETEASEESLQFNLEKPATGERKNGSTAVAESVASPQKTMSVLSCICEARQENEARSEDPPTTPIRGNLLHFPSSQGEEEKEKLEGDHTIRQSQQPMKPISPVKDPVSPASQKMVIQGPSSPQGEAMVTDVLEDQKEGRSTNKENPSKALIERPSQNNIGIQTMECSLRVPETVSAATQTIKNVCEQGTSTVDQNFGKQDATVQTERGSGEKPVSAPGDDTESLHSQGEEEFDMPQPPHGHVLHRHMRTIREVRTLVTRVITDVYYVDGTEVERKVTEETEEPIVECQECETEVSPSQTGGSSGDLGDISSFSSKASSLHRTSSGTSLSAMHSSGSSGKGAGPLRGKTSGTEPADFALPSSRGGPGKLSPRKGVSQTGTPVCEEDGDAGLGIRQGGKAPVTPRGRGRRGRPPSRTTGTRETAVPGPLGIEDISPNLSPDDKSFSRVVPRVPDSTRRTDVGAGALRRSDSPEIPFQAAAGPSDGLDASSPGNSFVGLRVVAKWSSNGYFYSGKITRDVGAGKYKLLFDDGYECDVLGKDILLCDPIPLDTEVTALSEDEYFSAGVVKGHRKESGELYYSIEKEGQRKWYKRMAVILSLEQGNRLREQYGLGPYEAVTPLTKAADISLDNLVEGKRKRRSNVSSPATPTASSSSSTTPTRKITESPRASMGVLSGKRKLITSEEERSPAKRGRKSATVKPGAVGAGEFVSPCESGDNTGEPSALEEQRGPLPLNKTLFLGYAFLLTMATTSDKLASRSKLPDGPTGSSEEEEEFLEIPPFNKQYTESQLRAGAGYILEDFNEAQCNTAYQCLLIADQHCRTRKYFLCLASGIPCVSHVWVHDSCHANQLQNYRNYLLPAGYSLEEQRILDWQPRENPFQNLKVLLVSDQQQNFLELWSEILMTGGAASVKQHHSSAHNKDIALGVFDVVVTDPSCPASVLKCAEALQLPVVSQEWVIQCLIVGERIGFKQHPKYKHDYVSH
Assay: co-immunoprecipitation from U2OS nuclear extracts, western blot
Procedure: Nuclear extracts from mock treated U20S cells or cells exposed to 1 or 8 Gy gamma irradiation were prepared as described by Waterman et al, 1998 Nature Genet., 19:175-178. Endogenous 53BP1, Mre11, or p95/NBS were immunoprecipitated by binding 1 μg/reaction of monoclonal anti-53BP1, or 1 μg/reaction purified Mre11 or p95/NBS antisera (Calbiochem) in 1× IP buffer [25 mM Hepes (pH 7.4)/100 mM NaCl/5 mM MgCl₂/100 mM EDTA/0.2 mg/ml BSA/0.1% Tween-20] to protein-G sepharose beads (Amersham) for 1 hour. After washing three times with 1× IP buffer, 100 μg nuclear extract was added and proteins allowed to bind for 1 hour at 4° C. The beads were washed and the proteins resolved on 6% SDS-PAGE, transferred to PVDF membrane and were visualized by western blot using the antibodies described in Part A above.

Row | binding result | Binder
1 | no binding | B1
2 | no binding | B2
